Laboratory results reported in patent US20250129178A1 (INNOBATION BIO, published 2025).

Key:
[1] = target: T1, mesothelin protein (Acrobiosystems, cat #MSN-H5223) (UniProt Q13421 296-580); assay: ELISA, mesothelin peptide coated 100 ng/well, 100 ul hybridoma culture, anti-mIgG-HRP
T1 construct: The catalogue number is printed only for the immunogen; also called mesothelin peptide; MSLN
Procedure: First, in order to encode the mesothelin peptide, mesothelin peptide was dispensed into a 96-well plate at an amount of 100 ng/well and reacted overnight at 4° C. Then, after treatment with 1×PBST containing 3% BSA, it was blocked for 30 minutes at room temperature. […] The secondary antibody (anti-HRP, 1:10,000) was treated and reacted at room temperature for 30 minutes, washed three times with 1×PBST, and then treated with TMB for color development and reacted at room temperature for 5 minutes. Finally, the reaction was terminated by treatment with a stop solution of 1N H₂SO₄, and then the absorbance was measured at 450 nm.

[2] = target: T2, mesothelin on NCI-H2052 mesothelioma cells overexpressing mesothelin (UniProt Q13421 296-598); assay: flow cytometry on NCI-H2052 cells, 1 ug antibody, PE goat anti-mouse IgG secondary
T2 construct: whole, on cells; NCI-H2052 is a human cell line and the positive control is anti-human mesothelin; also called H2052 cells; cells expressing mesothelin
T2 sequence (Q13421 other isoform, or with tags, fused parts or gaps limits assumed): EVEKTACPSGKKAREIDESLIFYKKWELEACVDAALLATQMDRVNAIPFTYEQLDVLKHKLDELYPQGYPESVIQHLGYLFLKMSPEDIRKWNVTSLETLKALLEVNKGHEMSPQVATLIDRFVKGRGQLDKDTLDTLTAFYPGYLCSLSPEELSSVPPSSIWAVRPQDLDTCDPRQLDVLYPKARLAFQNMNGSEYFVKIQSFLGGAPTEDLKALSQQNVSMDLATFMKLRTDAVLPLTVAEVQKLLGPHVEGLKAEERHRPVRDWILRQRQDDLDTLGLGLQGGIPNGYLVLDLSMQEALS

T1 sequence (Q13421 other isoform, or with tags, fused parts or gaps limits assumed): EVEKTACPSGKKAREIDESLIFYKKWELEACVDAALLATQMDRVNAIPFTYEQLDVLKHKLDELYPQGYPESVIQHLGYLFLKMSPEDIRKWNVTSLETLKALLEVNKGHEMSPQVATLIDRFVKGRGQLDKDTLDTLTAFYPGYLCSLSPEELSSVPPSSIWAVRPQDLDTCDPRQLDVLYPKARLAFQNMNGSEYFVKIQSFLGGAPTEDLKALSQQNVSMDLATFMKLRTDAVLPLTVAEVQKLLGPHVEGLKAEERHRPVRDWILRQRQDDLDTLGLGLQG

Row | Binder | OD 450 measurements [1] [OD 450] | Mean [2] | Median [2]
1 | 5A9 antibody (antibody, V domains shown, Mouse hybridoma monoclonal antibody, detected with anti-mouse IgG) VH: EVQLEESGPAVIKPSQSLSLTCIVSGFSITSSSYCWHWIRQPPGKGLEWMGRICYEGSIYYSPSIKSRFTISRDTSLNKFFIQLSSVTNEDTAMYYCSRENRLLKDAMDYWGQGTSVTVSS VL: DIVMTQSPSSLAVSAGEKVTMSCKSSQSLLSSRTRKNYLAWYQQKPGQSPKLLIYWASTRESGVPDRFTGSGSGTDFTLTISSVQAEDLAVYYCKQSYNLRTFGGGTKLEIK | 1.49 | 63.2 | 58.5
2 | 7C3 antibody (antibody, V domains shown, Mouse hybridoma monoclonal antibody, detected with anti-mouse IgG) VH: EVQLQQSGAELMRPGASVKISCKATGYTFSAYWIEWVKQRPGHGLEWIGEILPGSGSTKYNEKFKGKATFTADTSSNTAYMQLSSLTSEDSAVYYCARGDYYAMDYWGQGTSVTVSS VL: not shown | 1.52 | 528 | 444
3 | 9E8 antibody (antibody, V domains shown, Mouse hybridoma monoclonal antibody, detected with anti-mouse IgG; The printed VH and VL are identical to those of 3A8) VH: EVQLQQSGPELVKPGASMKISCKASGYSFTGYTMNWVKQSHGKNLEWIGLINPYNGGTSYNQKFKGKATLTVDKSSSTAYMELLSLTSEDSAVYYCARVGGSSWYFDVWGAGTTVTVSS VL: not shown | 0.758 | 77.7 | 56.2
4 | 9E11 antibody (antibody, V domains shown, Mouse hybridoma monoclonal antibody, detected with anti-mouse IgG) VH: QVQLKESGPGLVKPSQSLSLTCTVTGYSITSDYAWNWIRQFPGNKLEWMGYISYSGSTRYNPSLKSRISITRDTSKNQFFLQLNSVTTEDTATYYCARGAAGFAYWGQGTLVTVSA VL: DIVMTQSPASQSASLGESVTITCLASQTIGTWLAWYQQKPGKSPQLLIYAATSLADGVPSRFSGSGSGTEFSFKISSLQAEDFVSYYCQQLYSTPWTFGGGTKLEIK | 1.64 | 81.4 | 69.1
5 | 3A8 antibody (antibody, V domains shown, Mouse hybridoma monoclonal antibody; Tested as hybridoma culture supernatant in ELISA and at 1 ug in flow cytometry, detected with anti-mouse IgG; The printed VH and VL are identical to those of 9E8) VH: EVQLQQSGPELVKPGASMKISCKASGYSFTGYTMNWVKQSHGKNLEWIGLINPYNGGTSYNQKFKGKATLTVDKSSSTAYMELLSLTSEDSAVYYCARVGGSSWYFDVWGAGTTVTVSS VL: not shown | 1.27 | 861 | 704
6 | 4G11 antibody (antibody, V domains shown, Mouse hybridoma monoclonal antibody, detected with anti-mouse IgG) VH: EVQLQQSGPELVKTGDSVKISCKASGYSFTGYYMHWVKQSHGKSLEWIGYISCYNGATSYSQKFKGKATFTVDTSSSTAYMQFNSLTSEDSAVYYCARWDRDWFAYWGQGTLVTVSA VL: DIVMTQSHKFMSTSVGDRVSITCKASQDVGIAVAWYQQKPGQSPKLLIYWASTRHTGVPDRFTGSGSGTDFTLTISNVQSEDLADYFCQQYSSYPFTFGSGTKLEIK | 1.35 | 1260 | 1120
